Experimental findings from patent US20250312473A1 (BEONE MEDICINES I, published 2025) are described below.

Substitutions are numbered along the chain they refer to.

What is called Kd is the concentration at which binding is half-saturated. The term koff denotes a measure of how fast the partners let go of each other. High values mean fast dissociation, low ones slow dissociation. One may read the kon as a measure of how fast the partners come together. Read a high kon as faster complex formation. By EC50 is commonly meant the concentration that produces a half-maximal response.

For experiment [1], the target named is T1, ECD of human 4Ig-B7H3 (Sinobiological, Cat: 11188-H08H) (human).
T1 construct: Bought protein; also called human 4Ig-B7H3 ECD
In words: SPR, antibody captured on anti-human Fc surface, Test 1. The text has this:
(§1) For affinity determination, antibodies were captured by anti-human Fc surface, and used in an affinity assay based on surface plasmon resonance (SPR) technology.
For orientation: In SPR one partner is held on a chip, and binding of the other changes the refractive index at the surface.

In experiment [2] the target is T2, human 4Ig-B7H3 over-expressed on NK92mi cells (human, UniProt Q5ZPR3 29-534).
T2 construct: Full-length protein on live engineered NK92mi cells; also called NK92mi/B7H3; native B7H3
T2 sequence: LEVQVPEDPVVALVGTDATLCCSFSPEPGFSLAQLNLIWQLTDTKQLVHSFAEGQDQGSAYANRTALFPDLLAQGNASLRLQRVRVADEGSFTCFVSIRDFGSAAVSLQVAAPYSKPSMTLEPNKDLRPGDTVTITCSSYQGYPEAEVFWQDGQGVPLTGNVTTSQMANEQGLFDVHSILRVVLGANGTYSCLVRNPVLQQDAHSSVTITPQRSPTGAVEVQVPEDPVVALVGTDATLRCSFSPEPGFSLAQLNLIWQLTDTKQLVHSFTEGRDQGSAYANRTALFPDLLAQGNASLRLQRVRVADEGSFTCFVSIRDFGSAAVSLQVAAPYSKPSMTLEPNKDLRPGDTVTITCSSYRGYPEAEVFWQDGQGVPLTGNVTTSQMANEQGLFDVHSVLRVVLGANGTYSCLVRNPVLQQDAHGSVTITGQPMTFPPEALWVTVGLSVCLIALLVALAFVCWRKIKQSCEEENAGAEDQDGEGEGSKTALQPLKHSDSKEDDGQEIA
In words: FACS on live NK92mi/B7H3 cells, goat anti-human IgG detection, Test1. Here is the method: (§2) To evaluate the binding activity of humanized antibodies to bind native B7H3 on live cells, NK92mi cells were engineered to over-express human 4Ig-B7H3. Live NK92mi/B7H3 cells were seeded in 96-well plates and were incubated with a series of dilutions of chimeric or humanized antibodies. Goat anti-human IgG was used as second antibody to detect antibody binding to the cell surface. EC₅₀ values for dose-dependent binding to human native B7H3 were determined by fitting the dose-response data to the four-parameter logistic model with GraphPad Prism.

Experiment [3] has as its target T1, ECD of human 4Ig-B7H3 (Sinobiological, …). In words: SPR, antibody captured on anti-human Fc surface, Test 2.
Text: as §1

For experiment [4], the target named is T2, human 4Ig-B7H3 over-expressed on NK92mi …. The experiment in a line: FACS on live NK92mi/B7H3 cells, goat anti-human IgG detection, Test2. Here is the method: as §2

B1: Chimeric BGA-3295 (antibody, V domains shown)
VH: QIQVVQSGPELVKPGSLVKISCKASGYTFTNYDINWVKQRPGQGLEWIGWIYPGDGSAYYNEKFKGKATLTADKSSSTAYMQLSSLTSENSAVYFCARWGYGGVPFAYWGQGTLVTVSA
VL: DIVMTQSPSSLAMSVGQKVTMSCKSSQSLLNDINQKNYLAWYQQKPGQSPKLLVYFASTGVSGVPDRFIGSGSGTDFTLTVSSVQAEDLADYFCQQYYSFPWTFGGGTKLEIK
notes: Murine variable domains of BGA-3295, tested as the chimeric antibody; It was captured on an anti-human Fc surface and detected with anti-human IgG; also called Antibody BGA-3295
Regarding B1, in experiment [1], the affinity, expressed as Kd, was 0.394 nM; the koff is 0.000284 s⁻¹; the kon turned out to be 720000 M⁻¹ s⁻¹. In experiment [2], this molecule showed an EC50 of 1.1 nM.

B2: BGA-4348 (antibody, human IgG1, V domains shown)
VH: QIQLVQSGAEVKKPGSSVKVSCKASGYTFTNYDINWVRQAPGQGLEWMGWIYPGDGSAYYNEKFKGRATITADKSTSTAYMELSSLRSEDTAVYYCARWGYGGVPFAYWGQGTLVTVSS
VL: DIVMTQSPDSLAVSLGERATINCKSSQSLLNDINQKNYLAWYQQKPGQSPKLLVYFASTGVSGVPDRFSGSGSGTDFTLTISSLQAEDVAVYYCQQYYSFPWTFGGGTKVEIK
notes: also called humanized antibody BGA-4348; 1st version of humanized antibody; not shown: Human kappa light chain constant region
For the molecule B2, in experiment [1], the Kd stood at 0.33 nM, the koff worked out at 1.04e-05 s⁻¹ and the kon turned out to be 31500 M⁻¹ s⁻¹. In experiment [3], this molecule returned a Kd of 0.615 nM, a koff of 0.000227 s⁻¹ and a kon of 369000 M⁻¹ s⁻¹. The molecule also returned an EC50 in experiment [4] of 0.94 nM. The molecule also displayed a concentration giving a half-maximal response (EC50) in experiment [2] of 0.94 nM.

B3: BGA-5063 (antibody, human IgG1, V domains shown)
VH: B2 VH with I2V, G56A
VL: B2 VL
notes: Derived from BGA-4348 by framework and CDR mutations; also called humanized antibody BGA-5063; not shown: Human kappa light chain constant region
In experiment [3], B3 came in with a Kd of 0.916 nM, a koff of 0.000269 s⁻¹ and a kon of 294000 M⁻¹ s⁻¹. Also, the midpoint of the response in experiment [4], the EC50, lay at 1.15 nM.
